Tests used:
[1] = biological target: T1, Streptavidin (UniProt P22629 37-163, limits assumed); assay: ELISA, scFv
T1 construct: also called negative antigen; irrelevant antigen

[2] = biological target: T2, human IGSF11 (VSIG3) on cells (human, UniProt Q5DX21 23-431); assay: FACS % positive cells, scFv
T2 sequence: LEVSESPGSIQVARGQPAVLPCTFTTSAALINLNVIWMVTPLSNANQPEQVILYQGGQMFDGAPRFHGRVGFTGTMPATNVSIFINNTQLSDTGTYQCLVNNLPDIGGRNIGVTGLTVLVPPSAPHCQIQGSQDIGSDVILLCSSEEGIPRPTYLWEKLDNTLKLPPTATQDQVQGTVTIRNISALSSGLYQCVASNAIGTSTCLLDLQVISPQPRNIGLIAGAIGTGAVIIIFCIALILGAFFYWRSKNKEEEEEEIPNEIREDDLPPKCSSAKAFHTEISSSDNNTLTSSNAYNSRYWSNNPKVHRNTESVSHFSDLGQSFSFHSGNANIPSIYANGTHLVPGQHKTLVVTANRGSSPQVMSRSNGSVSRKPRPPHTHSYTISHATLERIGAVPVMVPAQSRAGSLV

[3] = biological target: T3, IGSF11 ECD fused to murine-Fc (human; mouse, UniProt Q5DX21 23-241); assay: ELISA, IgG
T3 construct: also called Fc-fusion IGSF11 ECD; full-length ECD of IGSF11; not shown: murine Fc
T3 sequence: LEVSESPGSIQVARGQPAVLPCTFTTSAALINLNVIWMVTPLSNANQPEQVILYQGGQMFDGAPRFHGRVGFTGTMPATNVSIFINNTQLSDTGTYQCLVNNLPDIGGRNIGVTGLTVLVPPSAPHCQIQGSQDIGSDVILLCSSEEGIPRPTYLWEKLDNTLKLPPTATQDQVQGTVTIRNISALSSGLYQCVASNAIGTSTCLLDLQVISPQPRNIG

[4] = biological target: T4, His-tagged extracellular domain (ECD) of human IGSF11 (VSIG3) (human, UniProt Q5DX21 23-241); assay: ELISA EC50 grade, IgG1
T4 construct: partly bought (SinoBiological 13094-H08H); also called IGSF11-HIS; HIS-IGSF11; not shown: HIS6 tag
T4 sequence: T3 sequence

[5] = biological target: T2, human IGSF11 (VSIG3) on cells; assay: FACS, HEK cells expressing IGSF11

T1 sequence (P22629 37-163 limits assumed): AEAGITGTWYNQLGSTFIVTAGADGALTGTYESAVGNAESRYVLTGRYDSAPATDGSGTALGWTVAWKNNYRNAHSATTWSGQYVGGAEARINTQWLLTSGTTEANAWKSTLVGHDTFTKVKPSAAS

B1: A-028 (scFv format) (scFv, V domains shown)
VH: QVQLVQSGAEVKKPGSSVKVSCKASGGTFSSYAISWVRQAPGQGLEWMGGIIPIFGTANYAQKFQGRVTITADESTSTAYMELSSLRSEDTAVYYCARVGVEYQLLWYFDYWGQGTLVTVSS
VL: DIQMTQSPSSLSASVGDRVTLTCRTSQTISNYLNWYQQKPGKAPKLLVYAASNLQSWVPSRFSGSGSGTDFTLTISSLQPEDFATYYCQQSYNASFGGGTKVEFK
notes: scFv
binding result [1]: no binding (tested: <0.025 or <0.05 RFU) | binding result [2]: binds

B2: A-010 (IgG1 format) (antibody, V domains shown)
VH: QVQLVQSGAEVKKPGASVKVSCKASGYTFTSYGISWVRQAPGQGLEWMGWISAYNGNTNYAQKLQGRVTMTTDTSTSTAYMELRSLRSDDTAVYYCARVPAWSGQFDYWGQGTLVTVSS
VL: QSALTQPASVSGSPGQSITISCTGSSSDVGGYNYVSWYQQYPGKAPKLMIYDVRSRPSGVSNRFSGSKSGNTASLTISGLQAEDEADYYCTSYTSSNTLVIFGGGTKVTVL
notes: human IgG1 format
EC50 [3]: < 1 nM | EC50 [4]: < 0.02 nM

B3: A-021 (scFv format) (scFv, V domains shown)
VH: B2 VH
VL: QSALTQPASVSGSPGQSITISCTGTSSDVGGYNYVSWYQQHPGKAPKLMIYEVTNRPSGVSDRFSGSKSANTASLTISELQAEDEAVYYCNSYTSGPTYVLFGGGTQLTVL
notes: scFv
binding result [1]: no binding (tested: <0.025 or <0.05 RFU) | binding result [2]: binds

B4: A-035 (IgG1 format) (antibody, V domains shown)
VH: QVQLVQSGAEVKKPGASVKVSCKASGYTFTGYYMHWVRQAPGQGLEWMGWINPNSGNTGYAQKFQGRVTMTRNTSISTAYMELSSLRSEDTAVYYCARGRLERGYWYFDLWGRGTLVTVSS
VL: NFMLTQPHSVSESPGRTVTISCTRSSGSITSNYVQWYQQRPGSAPTILIYEDKERPSEVPDRFSGSIDISSNSASLTISGLKTEDEADYYCQSYGGTSQGVLFGGGTKVTVL
notes: human IgG1 format
EC50 [3]: 1 to 20 nM | EC50 [4]: 0.02 to 0.05 nM | EC50 [5]: > 50 nM

B5: A-017 (scFv format) (scFv, V domains shown)
VH: QVQLVQSGAEVKKPGASVKVSCKASGYTFTGYYMHWVRQAPGQGLEWMGWINPNSGNTGYAQKFQGRVTMTRNTSISTAYMELSSLRSEDTAVYYCARGGQQQLVLDDYWGQGTLVTVSS
VL: DIVLTQSPASLSASVGDRITITCQASQDIRHHLNWFQHKPGKAPKLLISDSSNLETGVPSRFSGSGSGTDFSFTISRLQPEDIATYYCQQYDSLPRTFGQGTKLEIK
notes: scFv
binding result [1]: no binding (tested: <0.025 or <0.05 RFU) | binding result [2]: binds

B6: A-019 (scFv format) (scFv, V domains shown)
VH: B5 VH
VL: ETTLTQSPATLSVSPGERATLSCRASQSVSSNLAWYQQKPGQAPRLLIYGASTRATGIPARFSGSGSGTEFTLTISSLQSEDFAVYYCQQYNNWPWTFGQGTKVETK
notes: scFv
binding result [1]: no binding (tested: <0.025 or <0.05 RFU) | binding result [2]: binds
